What was measured:
[1] = tested on: peptide substrate "GLPVSTKPVATRNGL" (SEQ ID NO: 18); experiment: Peptide cyclization assay, kinetic analysis (HPLC/MS); format: biochemical
Procedure: (§1) Native and modified amino acids were purchased from Sigma-Aldrich (USA). All peptides used in this manuscript were synthesized in-house using the solid-phase method and HPLC purified. Cyclization assays were performed in 50-μl reaction mixtures containing 20 mM phosphate buffer, ligases (5 to 700 nM) and peptide substrates (10 to 300 μM). Each reaction was performed in triplicate at 37° C. and quenched by adding 5 μl of 1 M HCl solution. The peptides were separated by using a reversed-phase C18 analytical column (150×2.1 mm, Vydac) with a linear gradient from 10% to 50% acetonitrile over 15 min on a Nexera UHPLC system (Shimadzu). For kinetic analysis, the concentrations of WT OaAEP1, mutant OaAEP1, and butelase 1 were fixed at 700 nM, 50 nM, and 20 nM, respectively. The cyclization velocities were calculated by converting the HPLC-peak areas of remained linear precursors or the cyclized products into concentrations. The identity of each HPLC peak was analyzed by MALDI-TOF MS (ABI 4800 MALDI TOF/TOF). The velocities were input into GraphPad Prism (GraphPad Software, San Diego) to obtain the Michaelis-Menten curve and the kinetic parameters (kcat and Km). Comparison for the cyclization efficiency of various OaAEP1 mutants were performed in a volume of 20 μl of the reaction mixture and analyzed by MALDI-TOF MS after 10 mins or 1 hour ligation reaction.
The peptide cyclization activity of mature OaAEP1 was then analyzed using MS and the peptide substrate “[…]” (SEQ ID NO: 18) (FIG. 5A). The turn-over rate (kcat) for OaAEP1 is 0.052 s^−1, a value in good agreement with the previous report (Harris, K. S., et al., Nat Commun, 2015. 6: p. 10199). Likewise, the cyclization activity of butelase 1 extracted from plant was measured using the 15 residues peptide “[…]” (SEQ ID NO: 19) (FIG. 5A) leading to a kcat about 90 times faster than OaAEP1 b.

[2] = tested on: ubiquitin with C-terminal Asn-Gly-Leu and peptide having N-terminal residues GlyLeu; experiment: Ligation of ubiquitin with a peptide; format: biochemical
Procedure: (§2) (a) Fluorescence detection using 02 benzylcytosine-Alexa647 of the SNAP protein and SDS PAGE analysis with Comassie blue staining detection of the protein substrate and ligated products. The reaction is schematically depicted as inset. Cys247Ala ligates well folded protein well. […] (b) As little as 30 nM Cys247Ala catalyze ligation of 100 μM Ubiquitin and 500 μM biotin labelled peptide efficiently in 30 min, at room temperature, in pH 7.4 PBS buffer.
(§3) The ability of Cys247Ala to ligate ubiquitin with a peptide was first tested. The three residues“Asn-Gly-Leu” were added to the C-terminus of ubiquitin to make it recognizable by Cys247Ala. Another peptide having N-terminal residues GlyLeu was used as the add-on component. At a protein: peptide molar ratio of 1:5, Cys247Ala catalyzed the ligation of more than 90% ubiquitin with the peptide within 10 min (FIG. 6). An amount of 30 nM of Cys247Ala was enough for the reaction compared to 10-30 μM of sortase A typically required to perform productive ligations. […] Ubiquitin having the same “Asn-Gly-Leu” modification at its C-terminal end and a N-terminal modified SNAP (NEB) tag protein were used as substrates. […] Protein ligation can be performed within minutes at neutral pH and at room temperature.

[3] = tested on: ubiquitin and SNAP tag protein; experiment: Ligation of two well-folded proteins; format: biochemical
Procedure: as §2, §3

[4] = tested on: peptide substrate; experiment: Comparison of cyclization efficiency of gate-keeper Cys247 mutants (MALDI-TOF MS); format: biochemical
Procedure: as §1
The pre-ligation conformation of OaAEP1 captured in the present structure was then analyzed to identify several key features that could differentiate an AEP protease from an AEP-like ligase. […] In contrast to AEP proteases, the surface of OaAEP1 facing the catalytic Cys217 appears to be more widely open. Three cysteine residues (Cys247, Cys250, Cys264) are aligned along a shallow cleft at the surface of the enzyme (FIGS. 3C and 3E). Unlike the surface of AEP proteases that contains several bulges, both butelase 1 (using a homology model based on OaAEP1b) and OaAEP1 have residues with smaller side-chains along this patch. A disulfide bond is formed between Cys250 and Cys264, which are conserved in AEP-like ligases butelase 1 and OaAEP1b. This covalent bond is likely to stabilize the local structure and provide an adequate surface allowing the approach of an N-terminal amine incoming group. Conversely, the corresponding surface patch of AEP proteases (PDB: 4AWA) is lined with residues having bulky side-chains like Tyr (FIG. 3E) blocking this channel. It was therefore hypothesized that residue Cys247 which is located at the extremity of the substrate channel is likely to function as a final nucleophile filter (or “gate-keeper”), allowing attack from the N-terminal amine to complete the ligation reaction. […]

[5] = tested on: HEK293T; experiment: Cell surface labeling with fluorescently tagged SNAP protein; format: cell-based, human; details: 10 μM SNAP-NGL, 0.1 μM Quicklase, 30 minutes˜1 hour
Procedure: (§4) (b) Fluorecently tagged SNAP (New England Biolabs) protein was conjugated to the intrinsic cellular surface proteins of two different cell lines, RAW cell ([…]) and HEK293T (human epithelial cell line). 10 μM modified SNAP protein (with additional C-terminal NGL residues, lane 1 sample) with or without (lane 2 and lane 5 samples) coincubation of 0.1 μM Quicklase were added to cell culture, pre-washed with PBS buffer. After 30 minutes˜1 hour incubation, cells were rinsed with additional PBS buffer (lane 3 and lane 6 were first wash samples), two times. The remaining cell was harvested and lysed with SDS loading buffer (lane 4 and 7 samples). All samples were examined using SDS-PAGE, and only the covalently fluorescently tagged SNAP protein carried the signal on the gel, which were shown as dark bands in (b). […] (c) Surface modified RAW cells were examined using a fluorescent microscope, bright spots on the cellular surface indicated successful surface labelling of intrinsic cellular membrane.
(§5) 0.1 to 1 μM of OaAEP1 Cys247Ala was added to cellular culture in standard cell culture conditions. 1-20 μM labeling protein tags were added to the reaction afterwards, and incubated for 30-45 mins at 37° C. and standard culturing condition, before both excess enzymes and labelling tags were washed away. […]

[6] = tested on: RAW cell; experiment: as above; format: cell-based, human; details: 10 μM SNAP-NGL, 0.1 μM Quicklase, 30 minutes˜1 hour
Procedure: as §4, §5

B1: Cys247Ala: OaAEP1 Cys247Ala (Quicklase), Asx-specific peptide ligase having the amino acid sequence of SEQ ID NO:1 (protein, listed as Ovaloparmena affinis)
chain: MVRYLAGAVLLLVVLSVAAAVSGARDGDYLHLPSEVSRFFRPQETNDDHGEDSVGTRWAVLIAGSKGYANYRHQAGVCHAYQILKRGGLKDENIVVFMYDDIAYNESNPRPGVIINSPHGSDVYAGVPKDYTGEEVNAKNFLAAILGNKSAITGGSGKVVDSGPNDHIFIYYTDHGAAGVIGMPSKPYLYADELNDALKKKHASGTYKSLVFYLEACESGSMFEGILPEDLNIYALTSTNTTESSWAYYCPAQENPPPPEYNVCLGDLFSVAWLEDSDVQNSWYETLNQQYHHVDKRISHASHATQYGNLKLGEEGLFVYMGSNPANDNYTSLDGNALTPSSIVVNQRDADLLHLWEKFRKAPEGSARKEEAQTQIFKAMSHRVHIDSSIKLIGKLLFGIEKCTEILNAVRPAGQPLVDDWACLRSLVGTFETHCGSLSEYGMRHTRTIANICNAGISEEQMAEAASQACASIP
B1 was tested. Which “kcat relative to WT OaAEP1b” value [1] did it give?
Its value is “approximately 160 times”.

What about the “peptide ligase catalytic activity relative to wild type OaAEP1” value [1] of the same molecule?
Its value is about 160 times.

And the “enzyme concentration that catalyzes ligation efficiently” value ([2]; 100 μM Ubiquitin, 500 μM biotin labelled peptide, 30 min, room temperature, pH 7.4 PBS)?
Its value is 30 nM.

What about the “ubiquitin ligated with the peptide” value ([2]; protein: peptide molar ratio 1:5, within 10 min) of the same molecule?
Its value is “more than 90%”.

What about the “amount of enzyme enough for the reaction” value ([2]; ubiquitin-peptide ligation) of the same molecule?
Its value is 30 nM.

What about the “protein ligation activity (control ligation experiments)” value [3] of the same molecule?
The value was “protein ligation activity could only be observed in the presence of the Cys247Ala protein”.

What about the “individual substrate proteins ligated into a single polypeptide product” value ([3]; 5 μM SNAP tag protein, 8 μM ubiquitin, 100 nM enzyme) of the same molecule?
The value was “more than 60%”.

What about the “ligation of SNAP tag protein with Ubiquitin” value ([3]; 5 μM SNAP tag, 100 nM Cys247Ala, 4000 nM wild type OaAEP1b) of the same molecule?
Its value is “efficiently ligated”.

What about the “alternative reaction when N-terminal amine is not available” value ([4]; N-terminal amine group acetylated) of the same molecule?
Its value is “side chain ligation is more preferred”.

And the “ligase activity compared to WT OaAEP1” value ([4]; gate-keeper position 247 mutants)?
The value was “significantly improved enzymatic properties”.

What about the “conjugation of SNAP protein to intrinsic cellular surface proteins” value [5] of the same molecule?
Its value is “significant amount of intrinsic proteins in RAW and HEK283T cells were conjugated with SNAP protein”.

What about the “conjugation of SNAP protein to intrinsic cellular surface proteins” value [6] of the same molecule?
Its value is “significant amount of intrinsic proteins in RAW and HEK283T cells were conjugated with SNAP protein”.
